Source: US20190037818

Experiments:
Test in all cases: cell_activity
Conditions in all cases: Cel-1 assay; activity of the TALEN pair
[1] = tested on: XTN TALEN 2 right monomer
XTN TALEN 2 left monomer = tested on: XTN TALEN 2 left monomer
XTN TALEN 1 left monomer = tested on: XTN TALEN 1 left monomer
[2] = tested on: XTN TALEN 1 right monomer
[3] = tested on: XTN TALEN 3 right monomer
XTN TALEN 3 left monomer = tested on: XTN TALEN 3 left monomer

Sequence: TGCAGTATGCGGACCTTTATCTATGGCTGGAATTTCCTAAGTGCAGGGA (double strand) [TALEN 2 target, right half-site]
- activity [1]: 9%

Sequence: TGCAGTATGCGGACCTTTATCTATGGCTGGAATTTCCTAAGTGCAGGGA (double strand) [TALEN 2 target, left half-site]
- activity (XTN TALEN 2 left monomer): 9%

Sequence: TATGCGGACCTTTATCTATGGCTGGAATTTCCTAAGTGCAGGGAGCCACA (double strand) [TALEN 1 target, left half-site]
- activity (XTN TALEN 1 left monomer): 5%

Sequence: TATGCGGACCTTTATCTATGGCTGGAATTTCCTAAGTGCAGGGAGCCACA (double strand) [TALEN 1 target, right half-site]
- activity [2]: 5%

Sequence: TCTGCCAACCTCACATACAGTATGTGGTTTAGTCATTGAGCAAATGCA (double strand) [TALEN 3 target, right half-site]
- activity [3]: 3%

Sequence: TCTGCCAACCTCACATACAGTATGTGGTTTAGTCATTGAGCAAATGCA (double strand) [TALEN 3 target, left half-site]
- activity (XTN TALEN 3 left monomer): 3%
